To fix the notation:
B1: VHH-79 (VHH)
VHH: QVQLQESGGGLVQPGGSLRLSCAASGSIFSILAMAWYRQAPGKQRELVASITNGGSTNYADSVKGRFTISRDNDKNTVYLLMNSLKPEDTAVYYCNPRPMPWGTYDYWGQGTQVTVSS
notes: source: E. coli WK6 periplasm, purified (IMAC, SEC); not shown: His6, C-terminal, kept
B2: VHH-78 (VHH)
VHH: QVQLQESGGGLVQPGGSLRLSCAASGSIFSILAMGWYRQAPGKQRELVASVTNGGSTNYADSVKGRFTISRDNAKNTVYLQMNSLKPEDTAVYYCNVRPYSDYDSWGHGTQVTVSS
notes: as for B1
B3: VHH-61 (VHH)
VHH: DVQLVESGGGMVQPGGSLRLSCAASGFTFSSYGMSWVRQAPGKGPEWVSYINVGGGSTYYDDSVKGRFTISRDNAKNTLYLQMNSLKPEDTALYYCARGDPYSDHPQRTWGQGTQVTVSS
notes: 99mTc-labelled on the His tag for the in vivo experiment; source: E. coli WK6 periplasm, purified (IMAC, SEC); not shown: His6, C-terminal, kept
B4: VHH-29 (VHH)
VHH: DVQLVESGGGLVQPGGSLRLSCAASGFTFSSYAMSWVRQAPGKGPEWVSHINTGGGSTYYDDSVKGRFTISRDNAKNTLYLQMNSLKPEDTALYYCARGDPFDEYRYWGQGTQVTVSS
notes: as for B3
B5: VHH-51 (VHH)
VHH: B4 VHH with L11M, A33D, Q39L, H50Y, P88A, D103Q, E104R, Y105P, R106K
notes: as for B1
B6: VHH-71 (VHH)
VHH: B4 VHH with L11M, A33D, H50F, F102Y, D103S, E104D, Y105P, R106K
notes: as for B3
B7: VHH-56 (Table 1, the row between 53 and 57) (VHH)
VHH: B4 VHH with A33G, D61A, F102W, D103G, E104H, Y105D, R106P, Y107S
notes: this is the second; source: E. coli WK6 periplasm, purified (IMAC, SEC); not shown: His6, C-terminal, kept
B8: VHH-57 (VHH)
VHH: B4 VHH with L11M, A33G, D61A, F102W, D103G, E104H, Y105D, R106P, Y107S
notes: as for B3
B9: VHH-28 (VHH)
VHH: B4 VHH with F29L, S30D, S31D, H50Y, P88A, D103Q, E104R, Y105P, R106K
notes: as for B1
B10: VHH-65 (VHH)
VHH: B4 VHH with L11M, P14S, A33D, H50Y, P88A, D103Q, E104R, Y105P, R106K
notes: as for B1
B11: VHH-22 (VHH)
VHH: B4 VHH with A33D, N52T, Y59H, E104S, Y105S, Y107D
notes: as for B1
B12: VHH-53 (VHH)
VHH: B4 VHH with L11M, A33D, H50Y, P88A, D103Q, E104R, Y105P, R106K
notes: as for B3
B13: VHH-24 (VHH)
VHH: B4 VHH with L11M, A33D, N52T, Y59H, E104S, Y105S, Y107D
notes: as for B1
B14: VHH-63 (VHH)
VHH: DVQLVESGGGLVQPGGSLRLSCTVSGLTFSDYDMSWVRQAPGKGPEWVSFINTGGGSTYYDDSVKGRFTISRDNAKNTLYLQMDSLKPEDTALYYCARGDPYSDPKYWGQGTQVTVSS
notes: as for B3
B15: VHH-73 (VHH)
VHH: DVQLVESGGGMVQSGGSLRLSCAASGFTFSSYDMSWVRQAPGKGPEWVSTINTGGSSTYYDDSVKGRFTISRDNAKNTLYLQMNSLKPEDTALYYCARGGPYSRDYWGQGTQVTVSS
notes: as for B3
B16: VHH-6 (VHH)
VHH: DVQLVESGGGLVQAGGSLRLSCAASGRTFEDYFMAWFRQIPGKEREFVAAVGWNTGRGYYTDSVKGRFTISRDSAKNTLYLQMDSLKPEDTAVYYCNAPLQSLDRRLPGPYWGQGTQVTVSS
notes: as for B3
B17: VHH-17 (VHH)
VHH: DVQLVESGGGLVQPGDSLRLSCTASGFTFSNYPMSWVRQAPGKGPEWISHINTGGGSTYYADSVKGRFTISRDNAKNTLYLQMNSLKPEDTALYYCARGDPFKYSGSYLRGQGTQVTVSS
notes: as for B3

Substitutions are numbered along the chain they refer to.

The Kd is the free concentration of one partner at which half of the binding sites on the other are occupied at equilibrium, for simple one-to-one binding. One may read the koff as a measure of how fast the partners let go of each other. As a reminder, the kon is the rate constant with which the complex forms.

T3 sequence (Q8BHK6 23-224): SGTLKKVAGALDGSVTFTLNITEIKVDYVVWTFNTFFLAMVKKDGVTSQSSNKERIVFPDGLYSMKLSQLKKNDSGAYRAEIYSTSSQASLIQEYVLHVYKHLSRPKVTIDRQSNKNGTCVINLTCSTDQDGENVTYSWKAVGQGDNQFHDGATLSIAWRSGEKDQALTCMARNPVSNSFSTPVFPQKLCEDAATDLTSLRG

The first experiment addresses T1, human CS1 on CS1pos OPM2 multiple myeloma cells (Homo sapiens, OPM2 myeloma cells, UniProt Q9NQ25).
T1 construct: CS1 (SLAMF7, CD319), human, as expressed on OPM2 cells; also called cell-expressed CS1; huCS1; source: on CS1pos OPM2 cells (ATCC)
Put plainly: flow cytometry on cells; purified VHH at 200 nM, 1 h at 4°C, on CS1pos OPM2 cells; detected by mouse anti-His IgG1 mAb and APC anti-mouse IgG1 mAb; ΔMFI against the non-targeting control VHH R3B23 at 200 nM; n=1. Particulars: one partner purified. On the technique in general: In flow cytometry, cells or beads pass a laser one at a time.
B1: the binding result was “no binding (tested: 200 nM)”.

For B2, the binding result is on record as “no binding (tested: 200 nM)”.

The target in the next experiment is T2, recombinant human CS1 protein (CS1-(his)C) (Homo sapiens, UniProt Q9NQ25).
T2 construct: CS1 (SLAMF7, CD319), human, the extracellular portion; also called huCS1; SLAMF7; source: HEK293-E 253 cells, transiently transfected, purified from the supernatant (IMAC, SEC) by U Protein Express
Put plainly: SPR; Biacore T200; recombinant CS1 amine-coupled on a CM5 chip; VHH 100 nM to 3.125 nM in HBS pH 7.4, 25°C; association 180 s, dissociation 300 s; fit '1:1 binding with drift and RI2'; n=1. The note with it: both partners purified.
As for B3, the equilibrium dissociation constant (Kd) was 0.33 nM, the koff is 8.1e-05 s⁻¹ and the kon came to 250000 M⁻¹ s⁻¹.

Regarding B4, the dissociation constant Kd is 1.6 nM, the koff was 0.00024 s⁻¹ and the kon turned out to be 150000 M⁻¹ s⁻¹.

Take B5: the equilibrium dissociation constant (Kd) worked out at 0.6 nM, the koff is 0.00029 s⁻¹ and the kon amounted to 490000 M⁻¹ s⁻¹.

As for B6, the Kd was 4.29 nM, the off-rate (koff) was 0.0016 s⁻¹ and the kon is 372000 M⁻¹ s⁻¹.

As to B7, the Kd came to 36.1 nM, the koff was 0.01 s⁻¹ and the kon was 279000 M⁻¹ s⁻¹.

As for B8, the Kd is 24.7 nM, the koff was found to be 0.0085 s⁻¹ and the kon amounted to 350000 M⁻¹ s⁻¹.

As for B9, the dissociation constant Kd came out at 1.2 nM, the dissociation rate constant (koff) came out at 0.00025 s⁻¹ and the on-rate (kon) is 210000 M⁻¹ s⁻¹.

B10: the Kd worked out at 2.32 nM, the koff is 0.000979 s⁻¹ and the on-rate constant (kon) turned out to be 423000 M⁻¹ s⁻¹.

Take B11: the dissociation constant (Kd) turned out to be 4 nM, the off-rate constant (koff) was 0.00048 s⁻¹ and the on-rate (kon) was determined as 120000 M⁻¹ s⁻¹.

Regarding B12, the Kd amounted to 0.81 nM, the off-rate constant (koff) amounted to 0.0003 s⁻¹ and the association rate constant (kon) was 370000 M⁻¹ s⁻¹.

Take B13: the Kd turned out to be 4.7 nM, the off-rate (koff) was 0.00047 s⁻¹ and the kon was determined as 100000 M⁻¹ s⁻¹.

On to B14, for which the dissociation constant (Kd) worked out at 9.8 nM, the koff worked out at 0.0019 s⁻¹ and the on-rate (kon) is 190000 M⁻¹ s⁻¹.

As for B15, the dissociation constant Kd was determined as 35.8 nM, the dissociation rate constant (koff) is 0.00254 s⁻¹ and the kon amounted to 74400 M⁻¹ s⁻¹.

Turning to B16, the equilibrium dissociation constant (Kd) turned out to be 3.8 nM, the koff is 0.00079 s⁻¹ and the kon was 210000 M⁻¹ s⁻¹.

A further experiment concerns the target T3, recombinant murine CS1 protein (CS1-(his)C) (Mus musculus, strain , UniProt Q8BHK6).
T3 construct: CS1 (SLAMF7), murine, the extracellular portion; also called muCS1; source: HEK293-E 253 cells, transiently transfected, purified from the supernatant (IMAC, SEC) by U Protein Express
Put plainly: SPR; follow-up SPR on plate-coated muCS1 (Supplementary Figure 1). Particulars: both partners purified. For orientation: In SPR one partner is held on a chip, and binding of the other changes the refractive index at the surface.
In the case of B1, the binding result is reported as “binds”.

With B2, the binding result was “binds”.

The next experiment deals with T1, human CS1 on CS1pos OPM2 multiple …. Put plainly: cell-based or functional assay.
Settings: not given
Consider B3, for which the “tumor uptake of the 99mTc-labelled VHH in subcutaneous CS1pos OPM2 tumors in mice, ex vivo at 90 min p.i. (n=3)” value (“tumor uptake … at 90 min p.i. (n=3)” for short) was 6.57 % IA/g.

Turning to B17, the “tumor uptake … at 90 min p.i. (n=3)” value came to 1.05 % IA/g.

On to B4, for which the “tumor uptake … at 90 min p.i. (n=3)” value was 4.75 % IA/g.

Regarding B6, the “tumor uptake … at 90 min p.i. (n=3)” value was 4.02 % IA/g.

With B8, the “tumor uptake … at 90 min p.i. (n=3)” value came out at 0.85 % IA/g.

For B12, the “tumor uptake … at 90 min p.i. (n=3)” value came to 7.5 % IA/g.

On to B14, for which the “tumor uptake … at 90 min p.i. (n=3)” value was found to be 1.03 % IA/g.

On to B15, for which the “tumor uptake … at 90 min p.i. (n=3)” value amounted to 0.52 % IA/g.

For B16, the “tumor uptake … at 90 min p.i. (n=3)” value amounted to 6.29 % IA/g.

The next experiment has the same target. Put plainly: flow cytometry on cells; purified VHH at 200 nM, 1 h at 4°C, on CS1pos OPM2 cells; detected by mouse anti-His IgG1 mAb and APC anti-mouse IgG1 mAb; ΔMFI against the non-targeting control VHH R3B23 at 200 nM; n=1. The note with it: one partner purified. This is another data set of the same source.
B3: the “ΔMFI [VHH] = 200 nM” value came out at 10.3.

In the case of B17, the “ΔMFI [VHH] = 200 nM” value came out at 13.

B4: the “ΔMFI [VHH] = 200 nM” value came to 29.4.

Regarding B5, the “ΔMFI [VHH] = 200 nM” value was 14.3.

In the case of B6, the “ΔMFI [VHH] = 200 nM” value is 11.2.

B7: the “ΔMFI [VHH] = 200 nM” value was 4.72.

As for B8, the “ΔMFI [VHH] = 200 nM” value was 4.8.

As for B9, the “ΔMFI [VHH] = 200 nM” value stood at 6.58.

For the molecule B10, the “ΔMFI [VHH] = 200 nM” value came out at 11.4.

Take B11: the “ΔMFI [VHH] = 200 nM” value amounted to 7.29.

For B12, the “ΔMFI [VHH] = 200 nM” value was 22.1.

Take B13: the “ΔMFI [VHH] = 200 nM” value was found to be 20.6.

Consider B14, for which the “ΔMFI [VHH] = 200 nM” value was found to be 3.37.

As to B15, the “ΔMFI [VHH] = 200 nM” value amounted to 1.35.

B16: the “ΔMFI [VHH] = 200 nM” value is 101.

Another experiment concerns the target T2, recombinant human CS1 protein …. Put plainly: SPR; Biacore T200; recombinant CS1 amine-coupled on a CM5 chip; VHH 100 nM to 3.125 nM in HBS pH 7.4, 25°C; association 180 s, dissociation 300 s; fit '1:1 binding with drift and RI2'; n=1. The note with it: both partners purified. This is another data set of the same source.
On to B1, for which the binding result is recorded as “no binding (tested: 100 nM)”.

On to B2, for which the binding result is listed as “no binding (tested: 100 nM)”.

The target in the next experiment is T4, murine CS1 on muCS1pos 5T33vt cells (Mus musculus, 5T33vt myeloma cells, UniProt Q8BHK6).
T4 construct: CS1 (SLAMF7), murine, as expressed on 5T33vt cells; source: on murine CS1pos 5T33vt cells
T4 sequence (Q8BHK6 23-333): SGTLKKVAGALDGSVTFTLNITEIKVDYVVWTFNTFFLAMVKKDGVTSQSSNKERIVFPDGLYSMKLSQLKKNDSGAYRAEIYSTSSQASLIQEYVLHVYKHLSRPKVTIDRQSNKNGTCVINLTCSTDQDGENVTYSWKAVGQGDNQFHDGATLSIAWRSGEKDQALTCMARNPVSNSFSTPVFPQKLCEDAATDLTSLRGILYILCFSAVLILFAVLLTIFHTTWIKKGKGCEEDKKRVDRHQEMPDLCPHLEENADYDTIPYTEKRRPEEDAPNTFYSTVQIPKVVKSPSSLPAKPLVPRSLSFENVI
Put plainly: flow cytometry on cells; VHH on muCS1pos 5T33vt cells (Supplementary Figure 2). The note with it: one partner purified.
With B1, the binding result is given as “binds”.

With B2, the binding result was “binds”.
